Test results as given in patent US20220372463A1.

Target: Streptococcus pyogenes Cas9 endonuclease (Streptococcus pyogenes) (UniProt Q99ZW2)
Assay: cell-based or functional assay

Substance	fold decrease of the transition rate to the inhibited state relative to CascAID with wild-type AcrIIA4	kact (constant activation parameter for all CascAID variants; best fit of the ODE model to editing data)	γ4 (inhibitor strength: fold-change relative to the inhibition rate of CascAID wt; best fit of the ODE model)	γ3 (inhibitor strength: fold-change relative to the inhibition rate of CascAID wt; best fit of the ODE model)	kinh, CascAID (inhibition parameter for CascAID wt; best fit of the ODE model to editing data; marked not identifiable)
AcrIIA4 D14A/G38A as the auto-inhibitory domain of CascAID D14A/G38A	19 fold	1.13 h⁻¹	0.0519 unitless	–	–
AcrIIA4 N39A as the auto-inhibitory domain of CascAID N39A	16 fold	1.13 h⁻¹	–	0.0609 unitless	–
wild-type AcrIIA4 as the auto-inhibitory domain of CascAID wt (Cas9 fused to wild-type AcrIIA4)	–	1.13 h⁻¹	–	–	618 h⁻¹
